From US20260116991A1 (HAINAN SIMCERE ZAIMING PHARMACEUTICAL, published 2026)

Experiments:
[1] = biological target: T1, GPC3 endogenously expressed on HepG2 cells (UniProt P51654 25-554); experiment: FACS on HepG2 cells;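 note: flow cytometric binding of chimeric antibodies to cells, read as mean fluorescence intensity, EC50 obtained by curve fitting of the MFI data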
T1 construct: whole, on cells

[2] = biological target: T2, human GPC3 on CHO-K1-human GPC3 cells (clone CHOK1-hGPC3.2B5) (human, UniProt P51654 25-554); experiment: FACS on CHOK1-hGPC3.2B5 cells;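 note: flow cytometry binding of chimeric antibodies to the cells, read out as mean fluorescence intensity, with the half-maximal concentration derived by curve fitting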
T2 construct: whole, on cells; Stably transfected CHO-K1 clone 2B5

human GPC3-His protein [3] = biological target: T3, human GPC3-His protein (human, UniProt P51654 25-559); experiment: ELISA, coated human GPC3, antibody 1 nM;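 note: antigen coated at 1 µg/mL on 96-well plates, antibody bound for 2 h at 37 °C, detected with HRP-labeled secondary antibody and TMB, absorbance read at 450 nm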
T3 construct: Bought protein; also called human GPC3 protein; not shown: His tag

human GPC3-His protein [4] = biological target: T3, human GPC3-His protein; experiment: ELISA, coated human GPC3, antibody 10 nM;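 note: plate coated with antigen at 1 µg/mL, antibodies bound 2 h at 37 °C, detected via HRP-conjugated secondary antibody and TMB substrate, absorbance read after acid stop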
Protocol: The specific method is described as follows: The antigen protein was diluted with PBS to a final concentration of 1 μg/mL, and the diluent was added to a 96-well ELISA plate at 50 μL/well. The plate was sealed with a plastic film and incubated at 4° C. overnight, washed twice with PBS the next day, and a blocking solution [PBS+2% (w/w) BSA] was added for blocking at room temperature for 2 h. […] After incubation at 37° C. for 2 h, the plate was washed 3 times with PBS. A horseradish peroxidase (HRP)-labeled secondary antibody (purchased from Merck, Cat. No. AP113P) was added for incubation at 37° C. for 1 h, and the plate was washed 5 times with PBS. A TMB substrate was added at 50 μL/well for incubation at room temperature for 10 min, then a stop solution (1.0M HCl) was added at 50 μL/well. An ELISA plate reader (Multimode Plate Reader, EnSight, purchased from Perkin Elmer) was used to read OD_{450 nm} values, with results as shown in Table 4 to Table 6, FIG. 1A, FIG. 1B, and FIG. 1C.

human GPC3-His protein [5] = biological target: T3, human GPC3-His protein; experiment: ELISA, coated human GPC3, antibody 0.1 nM;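 note: antigen coated on 96-well plates at 1 µg/mL, antibody bound 2 h at 37 °C, detected with HRP-labeled secondary antibody and TMB substrate, acid-stopped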
human GPC3-His protein [6] = biological target: T3, human GPC3-His protein; experiment: ELISA, coated human GPC3, antibody 100 nM;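 note: antibodies bound to antigen-coated 96-well plates (1 µg/mL), 2 h at 37 °C, detected with HRP-labelled secondary antibody and TMB substrate, absorbance read at 450 nm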
human GPC3-His protein [7] = biological target: T3, human GPC3-His protein; experiment: ELISA, coated human GPC3, antibody 0.01 nM;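 note: Plate-bound antigen coated at 1 µg/mL, antibody incubated 2 h at 37 °C, binding detected by HRP-conjugated secondary antibody with TMB substrate, read as absorbance at 450 nm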
human GPC3-His protein [8] = biological target: T3, human GPC3-His protein; experiment: ELISA, coated human GPC3, antibody 0.001 nM
human GPC3-His protein [9] = biological target: T3, human GPC3-His protein; experiment: ELISA, coated human GPC3, antibody 0.0001 nM

| Binder | EC50 [1] [nM] | Max MFI [1] [MFI] | EC50 [2] [nM] | Max MFI [2] [MFI] | OD450 nm (human GPC3-His protein [3]) [OD450] | OD450 nm (human GPC3-His protein [4]) [OD450] | OD450 nm (human GPC3-His protein [5]) [OD450] | OD450 nm (human GPC3-His protein [6]) [OD450] | OD450 nm (human GPC3-His protein [7]) [OD450] | OD450 nm (human GPC3-His protein [8]) [OD450] | OD450 nm (human GPC3-His protein [9]) [OD450] |
| --- | --- | --- | --- | --- | --- | --- | --- | --- | --- | --- | --- |
| F1.9.19 human-murine chimeric antibody (antibody, human IgG1, kappa, V domains shown) VH: DVQLQESGPGLVKPSQSLSLTCSVTGYSITSGYYWNWIRQFPGNRLEWMAYISYDGINNYNPSLKNRISIARDTSTNQFFLKLNSVTSEDTATYYCATTTEVALFDHWGQGTTLTVSS VL: DVLLTQTPLSLPVSLGDQASISCRSSQNIVHGNGNTYLEWFLQKPGQSPKLLIYKVSNRFSGVPDRFSGSGSGTDFTLKISRVEAEDLGLYYCFQASHVPWTFGGGTKLEIKR | 1.12 | 3780 | 1.76 | 2700 | 1.6 | 1.85 | 0.58 | 1.88 | 0.16 | 0.11 | 0.1 |
| F2.169.2 human-murine chimeric antibody (antibody, human IgG1, kappa, V domains shown) VH: EVQLVETGGGLVQPKGSLKLSCAASGFSFNTNAMNWVRQAPGKGLEWVARIRSKSNNYATYYADSVKDRFTISRDDSQSMLYLQMNNLKTEDTAMYYCVRDGYYVLFAYWGQGTLVTVSA VL: DVLMTQTPLSLPVSLGDQASISCRFSQSIVNSNGNTYLEWFLQKPGQSPKLLIYKVSNRFSGVPDRFSGSGSGTDFTLKISRVEAEDLGVYYCFQGSHVPFTFGTGTKLEIKR | 0.65 | 3980 | 1.06 | 17300 | 2.24 | 2.52 | 1.25 | 2.43 | 0.27 | 0.11 | 0.1 |
| F2.154.1 human-murine chimeric antibody (antibody, human IgG1, kappa, V domains shown) VH: QVQLQQSGAELVRPGASVKLSCKASGYRFTDYEMHWVKQTPVHGLEWIGTIDPETGNTAYTQKFMDKATLTADKSSSTAYMELRSLTSEDSAVYYCTRGYSFTYWGQGTLATVSA VL: DVLMTQTPLSLPVSLGDQASISCRSSQNIVHSNGNTYLQWYLQKPGQSPKLLIFKVSNRFSGVPDRFSGSGSGTDFTLKISRVEAEDLGVYYCFQGSHVPFTFGTGTKLEIKR | 0.37 | 5450 | 1.14 | 26700 | 2.31 | 2.52 | 1.57 | 2.61 | 0.38 | 0.13 | 0.09 |
| F2.55.11 human-murine chimeric antibody (antibody, human IgG1, kappa, V domains shown) VH: EVKLVESGGGLVKPGGSLKLSCAASGLTFSTCTMSWVRQTPAKRLEWVATISSGGGNTYYPDSVKGRFTISRDNARNTLYLQMSSLRSEDTAMYYCVRLYYDGSPYAMDYWGQGTSVTVSS VL: DIQMTQTTSSLSASLGDRVTISCRASQDISNHLNWYQQKPDGTVKLLIYYTSRLHSGVPSRFSGSGSGTDYSLTISNLEQEDIATYFCQQDSKPPPTFGSGTKLEIKR | 0.66 | 1630 | 0.89 | 13600 | 2.24 | 2.66 | 1.57 | 2.58 | 0.43 | 0.15 | 0.11 |
| F1.120.16 human-murine chimeric antibody (antibody, human IgG1, kappa, V domains shown) VH: EFQLQQSGPELVKPGASVKISCKASGYSFTDYNMNWVKQSNGKSLEWIGLIHPKFSVTSYNRKFKGKATLTVDQSSSTAYMQLNSLTSEDSAVYYCARWAGDYFDYWGQGTTLTVSS VL: DIVLTQSPATLSVTPGDSVSLSCRASQSISNNLHWYQQKSHESPRLLIKYASQSISGIPSRFSGSGSGTDFTLTINSVETEDFGMYFCQQSNSWPQTFGGGTKLEIKR | 0.38 | 2080 | 0.52 | 9730 | 1.23 | 1.63 | 0.56 | 1.62 | 0.22 | 0.14 | 0.11 |
| F1.62.9 human-murine chimeric antibody (antibody, human IgG1, kappa, V domains shown) VH: QVQLQQSDAELVKPGASVKISCKVSGYIFTDHTIHWMKQRPEQGLEWIGYIYPRDGSIKYNENFKGKATLTADKSSSATYMQLNSLTSEDSAVYFCARPIYYDYAYYFDYWGQGTTLTVSS VL: DVVMTQSPLSLPVSLGDQASISCRSRQSLVHSNGNTYLHWYLQKPGQSPKVLIYKVSNRFSGVPDRFSGSGSGTDFTLKISRVEAEDLGVYFCSQSTHVPYTFGGGTKLEIKR | 1.32 | 3250 | 3.49 | 2160 | 0.63 | 0.96 | 0.2 | 1.09 | 0.1 | 0.09 | 0.11 |
| F2.23.8 human-murine chimeric antibody (antibody, human IgG1, kappa, V domains shown) VH: QVQLQQSGAELVRPGASVKLSCKASGYTFTDYEMHWVKQTPVHGLEWFGAIDPETGGTAYNQKFRAKATLTADKSSSTAYMELRSLTSEDSAVYYCTRFYSFAYWGQGTLVTVSA VL: DVVMTQTPLSLPVSLGDQASISCRSSQSLVHSNGNTYLQWYLQKPGQSPKLLIYKVSNRFSGVPDRFSGSGSGTDFTLKITRVEAEDLGVYFCSQSTHVPYTFGSGTKLEIKR | 1.64 | 11300 | 1.48 | 23200 | 2.16 | 2.35 | 1.28 | 2.51 | 0.29 | 0.12 | 0.1 |
| F1.136.7 human-murine chimeric antibody (antibody, human IgG1, kappa, V domains shown) VH: EVQLQQSGPVMVKPGPSVKISCQTSGFTFTDYYIHWVKQSHGKSLEWIGLVFPYDGGTNYNQKFKDKATLTLDTSSSTAYMELNSLTSEDSAVYYCARAGGFSYALNYWGQGTSVTVSS VL: DIQMTQSPSSLSASLGGKVTITCKASQDINNYIAWYQHKPGKGPRLLIHFTSTLQPGIPSRFSGSGSGRDYSFSISNLEPEDIATYYCLQYDNLLLTFGAGTKLELKR | 2 | 2240 | 1.41 | 9540 | 0.63 | 1.4 | 0.43 | 1.19 | 0.14 | 0.1 | 0.11 |

The remaining binders from weak to strong by EC50 [1], led by results:

| EC50 [1] [nM] | Max MFI [1] [MFI] | EC50 [2] [nM] | Max MFI [2] [MFI] | OD450 nm (human GPC3-His protein [3]) [OD450] | OD450 nm (human GPC3-His protein [4]) [OD450] | OD450 nm (human GPC3-His protein [5]) [OD450] | OD450 nm (human GPC3-His protein [6]) [OD450] | OD450 nm (human GPC3-His protein [7]) [OD450] | OD450 nm (human GPC3-His protein [8]) [OD450] | OD450 nm (human GPC3-His protein [9]) [OD450] | Binder |
| --- | --- | --- | --- | --- | --- | --- | --- | --- | --- | --- | --- |
| 1.3 | 4100 | 0.91 | 3080 | 1.56 | 1.85 | 0.64 | 2.06 | 0.15 | 0.1 | 0.11 | F1.153.1 human-murine chimeric antibody (antibody, human IgG1, kappa, V domains shown) VH: QIQLVQSGPELKKPGETVKISCKASGYTFTTAGMQWVQKMPGKGFKWIGWINTHSGEPQYAEDFKGRFAFSLETSASTAYLQISNLKNEDTATYFCARSFYYHGSSFFYFDYWGQGTTLTVSS VL: DIVMTQSQKFMSTTVGDRVSITCKASQNVGTAVAWYQQKPGQSPKLLIYSASNRYTGVPDRFTGSGSGADFTLTISNMQSEDLADYFCQQYSRYPLTFGAGTKLELKR |
| 0.95 | 12700 | 1 | 26500 | 2.21 | 2.34 | 1.33 | 2.3 | 0.34 | 0.12 | 0.1 | F2.39.2 human-murine chimeric antibody (antibody, human IgG1, kappa, V domains shown) VH: QVQLQQSGAELVRPGASVKVSCKASGYTFTDYEMHWMKQTPVHGLEWIGANEPETGRSAYDQKFKGKATLTADKSSSTAYMELRSLTSEDSAVYYCTRFYSFAYWGQGTLVTVSA VL: DVVMTQTPLSLPVSLGDQASISCRSSQGLVHNNGNTYLHWYLQKPGQSPKLLIYKVSNRFSGVPDRFSGSGSGTDFTLKISRVEAEDLGVYFCSQNTHVPPTFGGGTKLEIKR |
| 0.8 | 3810 | 2.78 | 3210 | 1.66 | 1.95 | 0.92 | 2.07 | 0.21 | 0.11 | 0.1 | F1.3.9 human-murine chimeric antibody (antibody, human IgG1, kappa, V domains shown) VH: QVQLQQPGTELVKPGASVKLSCKASGYTFTSYWIHWVKQRPGQGLEWIGNINPPNAGTNYNEKFKSKATLTVDKSSSTAYMQLSSLTSEDSAVYYCARGRWLLHDYWGQGTTLTVSS VL: DIQMTQSPASLSISVGETVTITCRASENIYSNLAWYQQKQGKSPQLLVYGTKNLAEGVPSRFSGSGSGTQYSLKINSLQSEDFGNYYCQHFWGTPYTFGGGTKLEILR |
| 0.67 | 2160 | 1.18 | 9700 | 1.95 | 2.35 | 0.94 | 2.53 | 0.22 | 0.12 | 0.09 | F1.145.22 human-murine chimeric antibody (antibody, human IgG1, kappa, V domains shown) VH: QVQLQQSGTDLARPGASVKLSCKASGYTFTSFGISWVKQRTGQGLEWIGEIYPRSGSPYYNEKFTGKATLTADKSSSTAYMELRSLTSEDSAVYFCAKDFGSSYVFDYWGQGTALTVSS VL: DIQMTQSPASLSASVGETVTITCRASENIYSYLTWYQQKQGKSPQLLVYNAKTLAEGVPSRFSGSGSGTQFSLKINSLQPEDFGTYYCQHHYGTPPTFGTGTKLDLKR |
